Reference: PMC7647994 (2020)
Read-outs that look alike come from different tables or passages of the source.

Experiments:
[1] = biological target: H10-tagged zinc-binding domain of human CLPX (human); experiment: SEC; Superose 12; H10PDIP38, ZBD, or both together; elution profiles from quantified protein bands
[2] = biological target: H10-tagged zinc-binding domain of human CLPX (human); experiment: pull-down; series of pull-down experiments to estimate the affinity of PDIP38 for the ZBD (Supplementary Fig. 3)
[3] = biological target: T1, H10-tagged zinc-binding domain of human CLPX (human)
T1 chain: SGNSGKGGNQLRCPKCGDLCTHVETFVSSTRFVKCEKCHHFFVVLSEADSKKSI

Question: How did the stoichiometry N [1] turn out when “H10-tagged zinc-binding domain of human CLPX (domain or fragment)” was run?
Answer: 2

B1: untagged PDIP38 (natural protein)
chain: SSRNRPEGKVLETVGVFEVPKQNGKYETGQLFLHSIFGYRGVVLFPWQARLYDRDVASAAPEKAENPAGHGSKEVKGKTHTYYQVLIDARDCPHISQRSQTEAVTFLANHDDSRALYAIPGLDYVSHEDILPYTSTDQVPIQHELFERFLLYDQTKAPPFVARETLRAWQEKNHPWLELSDVHRETTENIRVTVIPFYMGMREAQNSHVYWWRYCIRLENLDSDVVQLRERHWRIFSLSGTLETVRGRGVVGREPVLSKEQPAFQYSSHVSLQASSGHMWGTFRFERPDGSHFDVRIPPFSLESNKDEKTPPSGLHW
Question: For B1, which Kd [2] is on record?
Answer: 1800 nM

B2: GST-PDIP38 fusion protein (natural protein)
chain: SSRNRPEGKVLETVGVFEVPKQNGKYETGQLFLHSIFGYRGVVLFPWQARLYDRDVASAAPEKAENPAGHGSKEVKGKTHTYYQVLIDARDCPHISQRSQTEAVTFLANHDDSRALYAIPGLDYVSHEDILPYTSTDQVPIQHELFERFLLYDQTKAPPFVARETLRAWQEKNHPWLELSDVHRETTENIRVTVIPFYMGMREAQNSHVYWWRYCIRLENLDSDVVQLRERHWRIFSLSGTLETVRGRGVVGREPVLSKEQPAFQYSSHVSLQASSGHMWGTFRFERPDGSHFDVRIPPFSLESNKDEKTPPSGLHW
Question: With B2 as the molecule, how does the Kd [3] read?
Answer: ~1800 nM

B3: His10-tagged recombinant PDIP38 (H10PDIP38) (natural protein)
chain: SSRNRPEGKVLETVGVFEVPKQNGKYETGQLFLHSIFGYRGVVLFPWQARLYDRDVASAAPEKAENPAGHGSKEVKGKTHTYYQVLIDARDCPHISQRSQTEAVTFLANHDDSRALYAIPGLDYVSHEDILPYTSTDQVPIQHELFERFLLYDQTKAPPFVARETLRAWQEKNHPWLELSDVHRETTENIRVTVIPFYMGMREAQNSHVYWWRYCIRLENLDSDVVQLRERHWRIFSLSGTLETVRGRGVVGREPVLSKEQPAFQYSSHVSLQASSGHMWGTFRFERPDGSHFDVRIPPFSLESNKDEKTPPSGLHW
Question: For B3, which stoichiometry N (PDIP38 per ZBD2) [1] is on record?
Answer: 1
